In patent US20250289896A1 (ANALYTICAL BIOSCIENCES SHANGHAI, published 2025):

B1: ABC078.AF (antibody, human IgG1, kappa, V domains shown)
VH: QVQLVQSGAEVKKPGASVKVSCKASGYTFTDSEMHWVRQATGQGLEWMGAIQPETGGTAYNQKFKARVTMTRDTSISTAYMELSSLRSEDTAVYYCARRRRNFDYWGQGTLVTVSS
VL: DIVMTQTPLSLSVTPGQPASISCRSSQSLFHSSGNTYLHWYLQKPGQPPQLLIYKVSNRFSGVPDRFSGSGSGTDFTLKISRVEAEDVGVYYCSQSTHVPFTFGQGTKLEIKR
notes: Prior art antibody (PCT/US2021/023430); also called BMS-986340
B2: ABC025-H2G.SDIE (antibody, human IgG1, kappa)
heavy: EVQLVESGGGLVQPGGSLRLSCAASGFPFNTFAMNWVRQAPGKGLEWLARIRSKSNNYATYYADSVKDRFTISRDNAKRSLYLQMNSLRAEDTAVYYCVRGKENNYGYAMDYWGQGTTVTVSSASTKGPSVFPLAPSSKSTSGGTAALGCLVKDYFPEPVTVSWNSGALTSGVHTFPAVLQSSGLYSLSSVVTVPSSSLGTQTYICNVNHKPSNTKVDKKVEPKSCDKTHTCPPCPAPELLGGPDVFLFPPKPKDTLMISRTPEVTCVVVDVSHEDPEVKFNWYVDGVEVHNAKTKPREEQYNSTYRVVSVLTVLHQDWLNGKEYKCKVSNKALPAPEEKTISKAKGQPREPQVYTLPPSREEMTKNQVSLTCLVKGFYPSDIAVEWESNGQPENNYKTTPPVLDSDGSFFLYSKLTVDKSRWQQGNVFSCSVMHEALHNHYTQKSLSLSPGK
light: DIVMTQSPLSLPVTPGEPASISCRSSQSLLHSNANTYLYWFLQKPGQSPQLLIYRMSNLASGVPDRFSGSGSGTDFTLKISRVEAEDVGVYYCMQHLEYPFTFGQGTKLEIKRTVAAPSVFIFPPSDEQLKSGTASVVCLLNNFYPREAKVQWKVDNALQSGNSQESVTEQDSKDSTYSLSSTLTLSKADYEKHKVYACEVTHQGLSSPVTKSFNRGEC
notes: Humanized clone of ABC080.chH2.SDIE; Fc with SDIE mutation
B3: ABC138-H2.hu13.IgG1.SDIE (antibody, V domains shown)
VH: EVQLVESGGGLVQPGGSLRLSCAASGFPFNTFAMNWVRQAPGKGLEWLARIRSKSNNYATYYADSVKDRFTISRDNAKRSLYLQMNSLRAEDTAVYYCVRGKENNYGYAMDYWGQGTTVTVSS
VL: DIVMTQSPLSLPVTPGEPASISCRSSKSLLHSNANTYLYWFLQKPGQSPQLLIYRMSNLASGVPDRFSGSGSGTDFTLKISRVEAEDVGVYYCMQHVEYPFTFGGGTKLEIKR
notes: Developed by mutagenesis in the light chain CDRs of ABC025.H2G.SDIE; IgG1 with SDIE mutations; also called ABC0138.H2.Hu13.SDIE
B4: ChH2-AF (antibody, human IgG1, kappa)
heavy: not shown
light: DIVMTQAAPSVPVTPGESVSISCRSSQSLLHSNGNTYLYWFLQRPGQSPQLLIYRMSNLASGVPDRFSGSGSGTAFTLRISRVEAEDVGVYYCMQHLEYPFTFGIGTKLELKRTVAAPSVFIFPPSDEQLKSGTASVVCLLNNFYPREAKVQWKVDNALQSGNSQESVTEQDSKDSTYSLSSTLTLSKADYEKHKVYACEVTHQGLSSPVTKSFNRGEC
B5: ABC048-B1.hu11.IgG1.SDIE (antibody, V domains shown)
VH: EVQLVESGGGLVQPGGSLKLSCAASGFTFNTYAMNWVRQASGKGLEWVARIRSKSNNYATYYADSVKDRFTISRDDSKNTLYLQMNSLKTEDTAVYYCVREVRRDYALDQWGQGTMVTVSS
VL: DIVMTQSPLSLPVTPGEPASISCRSSKSLLHSNGNTYLYWFLQKPGQSPQLLIYRMSNLASGVPDRFSGSGSGTDFTLKISRVEAEDVGVYYCMQHVEYPFTFGGGTKLEIKR
notes: IgG1 with SDIE mutations, by its name; also called ABC048-B1.hull.IgG1.SDIE
B6: ABC084.AF (antibody, human IgG1, kappa, V domains shown)
VH: EVQLLESGGGLVQPGGSLRLSCAASGFTFSSYGMHWVRQAPGKGLEWVSAINWNGGSTGYADSVKGRFTISRDNSKNTLYLQMNSLRAEDTAVYYCARGHHSGYDGRFFDYWGQGTLVTVSS
VL: QSVLTQPPSVSGAPGQRVTISCTGSSSNIGAGYNVHWYQQLPGTAPKLLIYTNNRRPSGVPDRFSGSKSGTSASLAISGLRSEDEADYYCAAWDASLSGWVFGGGTKLTVLR
notes: Prior art antibody (PCT/EP2021/067504)
B7: ABC814 (antibody, human IgG1, kappa, V domains shown)
VH: EVQLVESGGGLVQPGRSLKLSCVASGFTFSDYYMAWVRQAPKKGLEWVASISYEGRSTYYGDSVKGRFTISRDDAKSTLYLQMNSLRSEDTATYYCARQDLYYGHKSYWYLDFWGPGTMVTVSS
VL: DIVMTQSPTSMSISVGDRVTMNCKASQNVGSNVDWYQQKPGQSPKLLIYKTSSRSTGVPDRFTGSGSRTDFTFTITNMQAEDLAVYYCMQSNSYPFTFGAGTKLELKR
B8: ABC820 (antibody, human IgG1, kappa, V domains shown)
VH: EVQLVESGGGLVQPGRSLKLSCAASGFTFSDYYMAWVRQAPKKGLEWVASISYEGRSTYYGDSVKGRFTISRDDEKSILYLQMSGPRSEDTATYYCARQDLYYGRNPSWFLDFWGPGTMVTVSS
VL: IVMTQSPTSMSISVGGRVTMNCKASQNVGSNVDWFQQKTGQSPKLLIYKTTSRYTGVPDRFTGSGSKTDFTFTISNMQAEDLAVYYCLQSNSFPYTFGAGTKLELKR
B9: ABC519 (antibody, human IgG1, kappa, V domains shown)
VH: EVHLVESGGGFVRPGRSMKLSCAASGFPFSFYGMAWVLQTPTKGLEWVASISYDGSDTYYRDSVKGRFAISRDNAKNTLYLQMESLRSEDTATFYCAKTSGYGSFDYWGQGTLVTVSS
VL: DIVMTQSPVSLPVSFGGQASISCRSSRSLVHRNGDTYLHWYLQKPGQSPQLLIYRVSNRFAGVPDRFSGSGSGTDFTLKISRVESEDLGLYYCLQGTHLPPTFGSGTKLEIKR
B10: ABC523 (antibody, human IgG1, kappa, V domains shown)
VH: EVKLVESGGGLVQPGNSLTLSCVASGFTFSNYGMHWIRQAPKKGLEWIAMIYSDSSKMFYTDTVKGRFTISRDNSKNTLYLEMNSLRSEDTAMYYCAARDYGYKGAHYYVMDAWGQGASVTVSS
VL: DIQMTQSPSFLSASVGDRVTIICKSSQNINRYLNWYQQKLGEAPKLLIYNANNLQTGIPSRFSGGGSGTDFTFTIGSLRPEDVATYFCLQHKSWPYTFGPGTKLELKR
B11: ABC080.chH2.SDIE (antibody)
heavy: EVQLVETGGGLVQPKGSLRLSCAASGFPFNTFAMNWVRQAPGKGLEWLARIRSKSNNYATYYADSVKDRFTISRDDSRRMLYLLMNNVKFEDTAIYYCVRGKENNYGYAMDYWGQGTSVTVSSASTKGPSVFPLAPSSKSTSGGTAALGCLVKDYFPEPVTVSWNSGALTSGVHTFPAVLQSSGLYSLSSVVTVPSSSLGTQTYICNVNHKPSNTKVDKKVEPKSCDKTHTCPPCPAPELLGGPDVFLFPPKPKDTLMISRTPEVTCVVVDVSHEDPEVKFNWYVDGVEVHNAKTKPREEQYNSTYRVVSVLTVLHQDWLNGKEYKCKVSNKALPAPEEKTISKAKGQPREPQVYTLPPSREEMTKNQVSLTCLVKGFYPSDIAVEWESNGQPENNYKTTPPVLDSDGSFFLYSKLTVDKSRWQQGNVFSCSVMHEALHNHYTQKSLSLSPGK
light: DIVMTQAAPSVPVTPGESVSISCRSSQSLLHSNGNTYLYWFLQRPGQSPQLLIYRMSNLASGVPDRFSGSGSGTAFTLRISRVEAEDVGVYYCMQHLEYPFTFGIGTKLELKRTVAAPSVFIFPPSDEQLKSGTASVVCLLNNFYPREAKVQWKVDNALQSGNSQESVTEQDSKDSTYSLSSTLTLSKADYEKHKVYACEVTHQGLSSPVTKSFNRGEC
notes: Chimeric antibody with SDIE Fc; ABC025.H2G.SDIE is its humanized clone
B12: ABC078 (antibody, V domains shown)
VH: QVQLVQSGAEVKKPGASVKVSCKASGYTFTDSEMHWVRQATGQGLEWMGAIQPETGGTAYNQKFKARVTMTRDTSISTAYMELSSLRSEDTAVYYCARRRRNFDYWGQGTLVTVSS
VL: DIVMTQTPLSLSVTPGQPASISCRSSQSLFHSSGNTYLHWYLQKPGQPPQLLIYKVSNRFSGVPDRFSGSGSGTDFTLKISRVEAEDVGVYYCSQSTHVPFTFGQGTKLEIKR

Tests used:
[1] = target: T1, Human CCR8 (C-C chemokine receptor type 8) (human, UniProt P51685 1-355); experiment: flow cytometry, human PBMC-derived activated Tregs
T1 construct: overexpressed on HEK293T (293T-hCCR8), Jurkat-hCCR8 and CHEM1-CCR8 cells; also called hCCR8
T1 sequence (P51685 whole entry): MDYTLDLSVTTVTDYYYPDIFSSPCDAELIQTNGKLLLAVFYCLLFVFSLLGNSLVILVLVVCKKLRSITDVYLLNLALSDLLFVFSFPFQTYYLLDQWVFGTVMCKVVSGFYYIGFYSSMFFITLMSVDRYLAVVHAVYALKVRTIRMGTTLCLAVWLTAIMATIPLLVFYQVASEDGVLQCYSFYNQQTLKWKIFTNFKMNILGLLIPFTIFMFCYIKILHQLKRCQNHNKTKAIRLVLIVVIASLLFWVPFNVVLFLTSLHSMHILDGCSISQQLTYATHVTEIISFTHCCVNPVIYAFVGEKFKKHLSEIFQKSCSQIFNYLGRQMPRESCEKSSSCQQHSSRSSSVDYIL
Protocol: (§1) 2.3 Cell-based binding assays for human PBMC-derived activated Tregs Binding specificity of the anti-CCR8 antibodies was tested by FACS using human PBMC-derived activated Tregs. In summary, Tregs were expanded and activated following the manufacturer's protocol (130-095-345, Miltenyi). Briefly, cryopreserved 7-day expanded human PBMC-derived Tregs (SailyBio) were thawed and rested overnight. They were then restimulated with CD3/CD28 MACSiBeads in the presence of rhIL-2 for 24 hours. […] Afterwards, the activated Tregs were plated at 20K/well in 96-well plates, spun down and the supernatant was removed. Cell pellets were then resuspended and incubated with 100 μl of various concentrations of mAbs or a human lgG1 isotype control antibody (biolegend #403501) at 37° C. for 30 min. The final concentrations of antibodies were indicated on x-axis in each figure. The cells were washed three times with FACS buffer (PBS containing 0.5 mg/ml BSA and 1 mM EDTA). PE-labeled goat-anti-human IgG (Invitrogen) diluted in FACS buffer was added to cell pellets as secondary antibodies at a concentration of 3 μg/ml, and the samples were incubated at 4° C. for 30 min. Samples were washed three times with FACS buffer and analyzed using a Cytek Aurora cytometer. Data were analyzed with GraphPad Prism 8.0 software to determine EC50 values.

[2] = target: T2, cynomolgus macaque CCR8 (cynomolgus macaque, UniProt G7NYJ2 1-355); experiment: cell-based or functional assay
T2 sequence (G7NYJ2 entry or part of it): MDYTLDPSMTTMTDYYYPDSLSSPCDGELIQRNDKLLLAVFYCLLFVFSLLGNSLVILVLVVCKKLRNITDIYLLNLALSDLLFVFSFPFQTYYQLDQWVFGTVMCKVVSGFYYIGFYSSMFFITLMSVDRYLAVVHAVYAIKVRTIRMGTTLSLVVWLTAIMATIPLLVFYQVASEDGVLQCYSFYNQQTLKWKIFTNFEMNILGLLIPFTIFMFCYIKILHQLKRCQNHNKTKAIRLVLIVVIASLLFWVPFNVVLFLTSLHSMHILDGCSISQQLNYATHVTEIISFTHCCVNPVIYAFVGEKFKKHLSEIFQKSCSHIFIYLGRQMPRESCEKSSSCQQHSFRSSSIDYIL

[3] = target: T1, Human CCR8 (C-C chemokine receptor type …); experiment: cell-based or functional assay
[4] = target: T1, Human CCR8 (C-C chemokine receptor type …); experiment: cell-based or functional assay; remark: listed apart in the source
[5] = target: T1, Human CCR8 (C-C chemokine receptor type …); experiment: flow cytometry, human PBMC-derived activated Tregs; remark: listed apart in the source
Protocol: as §1
Especially, FIG. 6 and Table 6 show the titration of anti-CCR8 mAbs ABC138-H2.hu13.IgG1.SDIE, ABC025-H2G.SDIE and ABC080.chH2.SDIE to human PBMC-derived activated Treg cells. ABC138-H2.hu13.IgG1.SDIE was developed by mutagenesis in the light chain CDRs of ABC025.H2G.SDIE, which is the humanized clone of ABC080.chH2.SDIE.

[6] = target: T3, mCCR8 (UniProt P56484 1-353, limits assumed); experiment: flow cytometry, 293T cells with mCCR8
T3 construct: whole, on cells; also called 293T-mCCR8
T3 sequence (looked up): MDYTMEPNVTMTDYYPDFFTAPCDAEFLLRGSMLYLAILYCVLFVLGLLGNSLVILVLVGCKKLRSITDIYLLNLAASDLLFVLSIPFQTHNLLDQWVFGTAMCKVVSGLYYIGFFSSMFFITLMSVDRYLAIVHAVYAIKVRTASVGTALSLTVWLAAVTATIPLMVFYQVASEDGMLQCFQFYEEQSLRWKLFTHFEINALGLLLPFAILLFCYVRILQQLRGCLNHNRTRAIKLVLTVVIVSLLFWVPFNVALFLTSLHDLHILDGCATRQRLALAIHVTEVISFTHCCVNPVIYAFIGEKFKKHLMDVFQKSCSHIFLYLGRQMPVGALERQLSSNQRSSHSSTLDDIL
Protocol: (§2) Binding specificity of the anti-CCR8 antibodies (mAbs) was tested by FACS using several cell lines. […] The binding titration of the anti-CCR8 antibodies to CCR8 transfectants was performed by serial dilution of antibodies. The diluted antibody (50 μl) in flow cytometry buffer (PBS, 0.5% BSA, 1 mM EDTA) was incubated with cells (50 μl) at a concentration of 2 million cells/ml on ice for 30 min. After two washes with flow cytometry buffer, bound antibody was detected with Alexa647-labeled F(ab′)2 fragment goat anti-human IgG (Jackson ImmunoResearch #709-606-149) (1:500 dilution) for 20 minutes on ice. The fluorescence was measured on a Cytek Aurora cytometer, after two washes with flow cytometry buffer. The data were analyzed with GraphPad Prism 8.0 software to determine EC50 values.

[7] = target: T1, Human CCR8 (C-C chemokine receptor type …); experiment: flow cytometry, Hut78 cells (endogenous human CCR8)
Protocol: as §2

[8] = target: T1, Human CCR8 (C-C chemokine receptor type …); experiment: flow cytometry, 293T cells overexpressing human CCR8
Protocol: as §2

[9] = target: T2, cynomolgus macaque CCR8; experiment: flow cytometry, 293T cells overexpressing cynomolgus CCR8
Protocol: as §2

[10] = target: T1, Human CCR8 (C-C chemokine receptor type …); experiment: cell-based or functional assay; remark: listed apart in the source

Row | Binder | EC50 [1] [nM] | binding result [6] | EC50 [7] [nM] | EC50 [8] [nM] | EC50 [9] [nM] | further results
1 | B1 | 0.729 |  |  |  |  | ADCC killing of Jurkat-cynoCCR8 cells, IC50 (pM) [2]: 346 pM; ADCC killing of Hut78 cells, IC50 (pM) [3]: 0.637 pM; ADCC killing of Jurkat-hCCR8 cells, IC50 (pM) [4]: 2.79 pM
2 | B2 | 1.78 |  |  |  |  | EC50 [5]: 0.38 nM
3 | B3 | 0.579 | no binding | 0.102 | 0.0237 |  | EC50 [5]: 0.105 nM; binding result [9]: no binding; ADCC killing of Jurkat-cynoCCR8 cells, IC50 (pM) [2]: 62.9 pM; ADCC killing of Hut78 cells, IC50 (pM) [3]: 0.652 pM; ADCC killing of Jurkat-hCCR8 cells, IC50 (pM) [4]: 2.09 pM
4 | B4 |  |  |  |  |  | ADCC killing of TALL-1 cells, Median EC50 (pM) [10]: 2.55 pM
5 | B5 | 0.521 |  |  |  |  | 
6 | B6 | 33.8 |  |  |  |  | 
7 | B7 |  | no binding | 11.6 | 0.0828 | 0.101 | 
8 | B8 |  | no binding | 19.4 | 0.103 | 0.09 | 
9 | B9 |  | no binding |  |  | 0.25 | binding result [7]: no binding
10 | B10 |  | no binding |  |  | 0.26 | binding result [7]: no binding
11 | B11 |  |  |  | 0.135 |  | EC50 [5]: 0.38 nM
12 | B12 |  | no binding | 0.648 | 0.0282 |  | binding result [9]: no binding
